Results: patent US20250361295A1 (published 2025)

B1: NGM831 (antibody, V domains shown)
VH: EVQLQQSGPEVKPGASVKISCKASGYTFTDYNMDWVKQSHGKSEWIGYIYPSNGGTGYNQKFKSKATLTVDKSSNTAYMELHSLTSEDSAVYYCARVPYYDYLYYYAMDYWGQGTSVTVSS
VL: QIVLSQSPAILSASPGEKVTMACRASSSVSFMHWYQQKPGSSPQPWIYATSNLASGVPARFSGSGSGTSYSLTISRVEAEDAATYYCQQWSTNPYMYTFGGGTKLEIK
B2: ch2-H1-D7-E5-D5 (antibody, V domains shown)
VH: EVHLVESGGGLVQPGGSRKLSCAASGFTFSSFGMHWVRQPPEKGLEWVAYISSGSSSIYYADTVKGRFTISRDNPKNTLFLQMTSLRSEDTAMYYCARGTGTGAMDYWGQGTSVTVSS
VL: DIQMTQTTSSLSASLGDRVTISCRTSQDISNYLNWYQQKPDGTVKLLIYYTSKLHSGVPSRFSGSGSGTDYSLTISNLDQEDIATYFCQQGNTLPWTFGGGTKLEIK
B3: h8-B3-F6-H8 (antibody, V domains shown)
VH: EVQLVESGGGLVQPGGSLRLSCAASGFDFSRYWMSWVRQAPGKGLVWIGEINPESSAINYAPSLKDRFTISRDNAKNTLYLQMNSLRAEDTAVYYCATSMTMDYWGQGTLVTVSS
VL: DIQMTQSPSSLSASVGDRVTITCKASQDIKSYLSWYQQKPGKAPKTLIYYATSLAGGVPSRFSGSGSGTDYTLTISSLQPEDFATYYCLQHGESPYTFGGGTKLEIK
B4: ch8-B3-F6-H8 (antibody, V domains shown)
VH: EVKVIESGGGLVQPGGSLKLSCAASGFDFSRYWMSWVRQAPGKGLEWIGEINPDSSAINYTPSLKDKFIISRDNAKNTLYLQMSKVRSEDTALYYCATSMTMDYWGQGTSVTVSS
VL: DIVMTQSPSSMYASLGERVTITCKASQDIKSYLSWYQQKPWKSPKTLIYYATSLADGVPSRFSGSGSGQDYSLTISSLESDDTATYYCLQHGESPYTFGGGTKLEK
B5: h2-H1-D7-E5-D5 (antibody, V domains shown)
VH: EVQLVESGGGLVQPGGSLRLSCAASGFTFSSFGMHWVRQAPGKGLEWVAYISSGSSSIYYADTVKGRFTISRDNAKNSLYLQMNSLRAEDTAVYYCARGTGTGAMDYWGQGTLVTVSS
VL: DIQMTQSPSSLSASVGDRVTITCRTSQDISNYLNWYQQKPGKAPKLLIYYTSKLHSGVPSRFSGSGSGTDFTFTISSLQPEDIATYFCQQGNTLPWTFGGGTKLEIK
B6: IO-202 (antibody, V domains shown)
VH: EVQLLESGGGLVQPGGSLRLSCAASGIDFSNHYYMYWVRQAPGKGLEWIGSIFSGDSASTYYADSAKGRFTISRDNSKNTLYLQMNSLRAEDTAVYYCARGMSTNDWASDLWGQGTLVTVSS
VL: DIQMTQSPSSLSASVGDRVTITCQASESINSIYLAWYQQKPGKAPKLLIYRASTLASGVPSRFSGSGSGTDFTLTISSLQPEDFATYYCQQSYDWGDVENTFGGGTKVEIK

Key:
[1] = molecular target: T1, human LILRB4 (human, UniProt Q8NHJ6 22-448); experiment: competitive FACS; competition with NGM831
[2] = molecular target: T1, human LILRB4; experiment: FACS
[3] = molecular target: T1, human LILRB4; experiment: ELISA; panel A
[4] = molecular target: T1, human LILRB4; experiment: ELISA; panel B
[5] = molecular target: T1, human LILRB4; experiment: competitive FACS; competition with h2-H1-D7-E5-D5

T1 sequence (Q8NHJ6 22-448): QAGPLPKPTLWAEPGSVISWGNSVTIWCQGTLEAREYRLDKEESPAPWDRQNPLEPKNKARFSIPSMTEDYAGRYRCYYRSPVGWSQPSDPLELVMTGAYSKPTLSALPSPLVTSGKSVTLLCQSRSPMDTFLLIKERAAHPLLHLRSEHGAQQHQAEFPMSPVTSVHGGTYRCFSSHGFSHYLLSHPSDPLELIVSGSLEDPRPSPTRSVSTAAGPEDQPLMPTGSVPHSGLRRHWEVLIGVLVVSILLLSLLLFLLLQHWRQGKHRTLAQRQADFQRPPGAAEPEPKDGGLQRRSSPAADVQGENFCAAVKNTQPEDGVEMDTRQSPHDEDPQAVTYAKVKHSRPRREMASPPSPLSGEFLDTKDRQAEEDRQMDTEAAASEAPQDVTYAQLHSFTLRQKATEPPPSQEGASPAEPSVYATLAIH

| Binder | EC50 [1] [nM] | EC50 [2] [nM] | EC50 [3] [nM] | EC50 [4] [nM] | EC50 [5] [nM] |
| --- | --- | --- | --- | --- | --- |
| B1 | 3.67 | 0.849 | 0.0372 | 0.0265 | – |
| B2 | – | – | 1.12 | – | – |
| B3 | – | – | – | 0.0286 | 6.33 |
| B4 | – | 1.49 | – | 0.0317 | – |
| B5 | – | – | 7.96 | – | – |
| B6 | – | – | 0.0172 | 0.0141 | – |
